Tests used:
Spc98 = target: T1, Spc98 (S. cerevisiae, UniProt P53540 1-846); experiment: cross-linking
T1 sequence: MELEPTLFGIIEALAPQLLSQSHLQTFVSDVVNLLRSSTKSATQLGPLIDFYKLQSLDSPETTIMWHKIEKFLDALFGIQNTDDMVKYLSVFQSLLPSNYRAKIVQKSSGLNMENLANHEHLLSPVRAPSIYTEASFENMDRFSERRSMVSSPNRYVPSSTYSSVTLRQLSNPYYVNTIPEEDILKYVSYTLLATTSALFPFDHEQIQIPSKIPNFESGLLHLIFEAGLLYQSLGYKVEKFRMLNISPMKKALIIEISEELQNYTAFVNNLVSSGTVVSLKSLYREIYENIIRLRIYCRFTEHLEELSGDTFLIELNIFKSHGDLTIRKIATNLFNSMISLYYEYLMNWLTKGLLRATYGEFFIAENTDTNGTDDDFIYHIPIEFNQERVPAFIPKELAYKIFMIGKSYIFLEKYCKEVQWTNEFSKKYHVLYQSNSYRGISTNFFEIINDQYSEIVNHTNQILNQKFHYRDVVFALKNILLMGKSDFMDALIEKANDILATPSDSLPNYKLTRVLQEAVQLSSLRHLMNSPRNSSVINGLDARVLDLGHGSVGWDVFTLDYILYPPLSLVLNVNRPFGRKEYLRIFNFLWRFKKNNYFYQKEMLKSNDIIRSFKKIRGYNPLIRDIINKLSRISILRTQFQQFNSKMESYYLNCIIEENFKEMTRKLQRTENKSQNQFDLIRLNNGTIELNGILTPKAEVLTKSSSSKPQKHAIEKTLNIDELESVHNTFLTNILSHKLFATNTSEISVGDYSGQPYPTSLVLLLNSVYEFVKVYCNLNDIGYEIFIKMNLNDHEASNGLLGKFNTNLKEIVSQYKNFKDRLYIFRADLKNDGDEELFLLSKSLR

Spc97 = target: T2, Spc97 (S. cerevisiae, UniProt P38863 1-823); experiment: cross-linking
T2 sequence: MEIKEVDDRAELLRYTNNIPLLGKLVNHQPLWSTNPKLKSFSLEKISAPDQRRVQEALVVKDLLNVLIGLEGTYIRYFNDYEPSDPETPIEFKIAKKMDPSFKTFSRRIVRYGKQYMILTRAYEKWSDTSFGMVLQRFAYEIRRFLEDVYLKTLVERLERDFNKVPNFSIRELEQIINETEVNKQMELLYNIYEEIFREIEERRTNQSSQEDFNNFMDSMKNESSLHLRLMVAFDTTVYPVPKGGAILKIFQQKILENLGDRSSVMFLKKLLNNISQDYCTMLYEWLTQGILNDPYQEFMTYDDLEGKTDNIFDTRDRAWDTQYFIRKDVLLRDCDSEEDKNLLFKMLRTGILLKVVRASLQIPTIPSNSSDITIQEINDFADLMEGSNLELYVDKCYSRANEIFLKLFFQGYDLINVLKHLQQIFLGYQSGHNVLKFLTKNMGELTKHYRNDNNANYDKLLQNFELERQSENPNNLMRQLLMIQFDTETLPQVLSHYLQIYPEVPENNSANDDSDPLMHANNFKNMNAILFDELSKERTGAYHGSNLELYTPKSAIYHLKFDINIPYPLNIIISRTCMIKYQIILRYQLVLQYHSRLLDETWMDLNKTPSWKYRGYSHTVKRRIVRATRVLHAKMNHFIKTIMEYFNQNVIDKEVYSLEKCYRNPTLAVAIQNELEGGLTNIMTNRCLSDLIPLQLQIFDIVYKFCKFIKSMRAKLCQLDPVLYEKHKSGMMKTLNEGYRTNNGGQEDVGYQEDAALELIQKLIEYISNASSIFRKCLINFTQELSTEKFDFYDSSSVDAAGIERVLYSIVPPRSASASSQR

binding result (Spc98): binds
binding result (Spc97): binds
B1: Spc110^1-401-GST (domain or fragment, S. cerevisiae, UniProt P32380 1-401, looked up)
chain: MDEASHLPNGSLKNMEFTPVGFIKSKRNTTQTQVVSPTKVPNANNGDENEGPVKKRQRRSIDDTIDSTRLFSEASQFDDSFPEIKANIPPSPRSGNVDKSRKRNLIDDLKKDVPMSQPLKEQEVREHQMKKERFDRALESKLLGKRHITYANSDISNKELYINEIKSLKHEIKELRKEKNDTLNNYDTLEEETDDLKNRLQALEKELDAKNKIVNSRKVDDHSGCIEEREQMERKLAELERKLKTVKDQVLELENNSDVQSLKLRSKEDELKNLMNELNELKSNAEEKDTQLEFKKNELRKRTNELNELKIKSDEMDLQLKQKQNESKRLKDELNELETKFSENGSQSSAKENELKMLKNKIAELEEEISTKNSQLIAKEGKLASLMAQLTQLESKLNQRD
